The values below come from article PMC13120683.

“And” between values parts separate entries of the source, which are not always exact repeats. Equal entries are not always repeated.

In test [1] the target is MyoF-Motor (MyoF lacking its WD40 tail domain, a.a. 1–1265, C-terminal biotin–FLAG tag), heavy chain (T. gondii). Nature of the test: negative-stain electron microscopy; negatively stained images of purified myosin constructs with co-purified light chain.
The target in test [2] is MyoF-Tail (coiled-coil region, linker and WD40 domain, a.a. 987–1953, C-terminal biotin–FLAG tag) (T. gondii). Nature of the test: SEC; analytical; 0.25 mg/ml MyoF-Tail on Superdex 10/300 GL; 10 mM imidazole pH 7.4, 300 mM NaCl, 1 mM EGTA, 1 mM DTT; standards ferritin 440 kDa and thyroglobulin 660 kDa. (In general: SEC sorts molecules by how far they enter the pores of the column.)

Test [3] addresses MyoF-Motor (MyoF lacking its WD40 tail domain, a.a. 1–1265, C-terminal biotin–FLAG tag), heavy chain (T. gondii). Nature of the test: thermal denaturation (calmodulin-binding) assay.
Test [4] shares this target.
For test [5], the target named is Toxoplasma gondii actin (TgAct1) filaments (T. gondii) (UniProt P53476). The test can be described thus: single-molecule motility assay (fluorescence microscopy); full-length MyoF mixed 1:5 with Alexa Fluor 647–streptavidin; TgAct1 filaments (jasplakinolide-stabilised or unstabilised) or skeletal actin-fascin bundles (phalloidin or jasplakinolide) held on the flow cell; 2 mM MgATP; 37°C.

The target is the same in test [6].
In test [7] the target is full-length MyoF with a C-terminal biotin–FLAG tag, heavy chain (T. gondii). Nature of the test: negative-stain electron microscopy; negatively stained images of purified myosin constructs with co-purified light chain.

By stoichiometry N is commonly meant a count of units in the complex or per binding partner. As to “MyoF-Motor (MyoF lacking its WD40 tail domain, a.a. 1–1265, C-terminal biotin–FLAG tag), heavy chain (domain or fragment)”, the stoichiometry N in test [1] stood at 2. In turn, “MyoF-Tail (coiled-coil region, linker and WD40 domain, a.a. 987–1953, C-terminal biotin–FLAG tag) (domain or fragment)” displayed a stoichiometry N in test [2] above 6. As for “TgCam (calmodulin), untagged, co-expressed in Sf9 cells (natural protein)”, in test [3], the stoichiometry N (calmodulin light chains per heavy chain) is 3. Moreover, in test [4], the in vitro gliding filament motility speed of MyoF-Motor bound to only TgCam (skeletal actin) worked out at 1.2 µm/s. Take “full-length MyoF co-purified with TgCam (complex)”: the pause time at filament ends in test [5] was determined as 1.5 s. In test [6], the run length (λ) of single full-length MyoF complexes on jasplakinolide-stabilized TgAct1 filaments was determined as 1.14 µm and the velocity of single full-length MyoF complexes on jasplakinolide-stabilized TgAct1 filaments was determined as 1.5 µm/s. Turning to “full-length MyoF with a C-terminal biotin–FLAG tag, heavy chain (natural protein)”, the stoichiometry N in test [7] is 3 heads and 6 heads.
